From patent publication US20160362487A1 (Regeneron, published 2016)

T1: human IL-33 (R&D Systems, #3625-IL-010/CF) (human, UniProt O95760 112-270)
T1 construct: Commercial recombinant protein; also called hIL-33; interleukin-33
T1 sequence (looked up): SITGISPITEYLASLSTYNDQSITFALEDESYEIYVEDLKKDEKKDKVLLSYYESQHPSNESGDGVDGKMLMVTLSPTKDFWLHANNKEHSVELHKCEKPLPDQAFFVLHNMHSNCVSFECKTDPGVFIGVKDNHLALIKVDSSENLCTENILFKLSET


Tests used:
[1] = molecular target: T2, pre-formed complex of hIL-33 and captured hST2-MMH (human, UniProt O95760 112-270); assay: SPR 25C, 100 nM mAb over hIL-33/hST2-MMH complex
T2 construct: Ligand-receptor complex on the sensor: hST2-MMH captured by anti-myc mAb and saturated with 100 nM hIL-33; also called hIL-33 pre-complexed with hST2-MMH
Description: The ability of anti-IL-33 antibodies to bind to a pre-formed complex of IL-33 with ST2 was tested using Biacore T-200 instrument equipped with a real-time surface plasmon resonance biosensor. The experiment was performed at 25° C. with a running buffer composed of 0.01M HEPES pH 7.4, 0.15M NaCl, 3 mM EDTA, and 0.05% v/v Surfactant Tween-20 (HBS-ET). […] The captured hST2-MMH surface was then saturated by injecting 100 nM of human IL-33 (hIL-33; R&D Systems, #3625-IL-010/CF) for 3 minutes followed by a 3 minute injection of a 100 nM solution of the anti-IL-33 monoclonal antibody. The real-time binding response was monitored during the entire course of the experiment, and the observed binding response at 3 minutes after injection of anti-IL-33 antibody to the pre-formed complex of hIL-33 and captured hST2-MMH was recorded and tabulated and shown in Table 7. No non-specific binding of anti-IL-33 monoclonal antibody to the anti-myc tag capture surface was observed.

[2] = molecular target: T1, human IL-33 (R&D Systems, …); assay: BLI; hIL-33 pre-mixed with mAb-2 Isotype control 1
Description: Binding competition between a panel of different anti-IL-33 monoclonal antibodies was determined using a real time, label-free bio-layer interferometry assay on an Octet® HTX biosensor (ForteBio, A Division of Pall Life Sciences). The experiment was performed at 25° C. using a buffer of 0.01M HEPES pH7.4, 0.15M NaCl, 0.05% v/v Surfactant Tween-20, and 0.1 mg/ml BSA (HBS-ET kinetics buffer) with the plate shaking at a speed of 1000 rpm. To assess whether two antibodies were able to compete with one another for binding to human IL-33, a pre-mix assay format was used where 100 nM of human IL-33 (R&D Systems; #3625-IL-010/CF) was pre-mixed with 500 nM of different anti-IL-33 monoclonal antibodies (subsequently referred to as mAb-2) for at least 2 hours prior to running the binding competition assay. […] Following the capture step, unoccupied anti-mouse Fc polyclonal antibody and anti-human Fc polyclonal antibody on the Octet biosensors were saturated by submerging them for 4 minutes into wells containing 200 μg/mL of a non-specific monoclonal antibody with a mouse Fc or with a human Fc, respectively. Finally, the Octet biosensors were immersed for 4 minutes into wells containing the pre-mixed samples of 100 nM of human IL-33 and 500 nM of mAb-2. At the end of each cycle, the non-covalently captured anti-IL-33 antibodies along with the bound pre-complex of human IL-33 and mAb-2 were removed from the biosensors using three alternate 20 second immersions into 10 mM HCl followed by submerging into HBS-ET kinetics buffer. The biosensors were washed in HBS-ET kinetics buffer in between every step of the experiment. The real-time binding response was monitored during the binding events, and the binding response (in units of nm) at the end of every step was recorded.

[3] = molecular target: T1, human IL-33 (R&D Systems, …); assay: cell-based or functional assay

Binder | Antibody Binding Response (RU) [1] [RU] | mAb-1 Binding to the Pre-complex of mAb-2 & hIL-33 [2] [nm] | IC50, blocking of IFN-γ release from human PBMC induced by 260 pM hIL-33, donor #603486 [3] [M] | IC50, blocking of IFN-γ release from human PBMC induced by 260 pM hIL-33, donor #603487 [3] [M]
H1M9565N (antibody, mouse IgG1, V domains shown, Human variable domains, mouse IgG1 Fc (H1M)) VH: QVTLKESGPVLVKPTESLTLTCSVSGFSLSNVRMGVSWIRQSPGKALEWLAHIFSNDEKSYTTSLKTRLTISKDTSRSQVVLTMTDMDPGDTATYYCARIRNLAFNYWGQGTLVTVSS VL: not shown | 11 | -0.01 | – | –
H1M9568N (antibody, mouse IgG1, V domains shown, Human variable domains, mouse IgG1 Fc (H1M)) VH: QVLLVQSGAEVKKPGATVKVSCKASGSTFTGYYMHWVRQAPGQGLEWMGWINPNNGGTNYAQKFQGRVTMTRDTSISTAYMELSRLRSDDTAVYYCARELRYNWKSWGQGTLVTVSS VL: EIVLTQSPGTLSLSPGERVTLSCRASQSVGRPYLAWYQQIPGQAPRLLIYGASSRATDIPDRFSGNGSGTDFTLTISRLEPEDFAVYYCQQYDNSPYTFGQGTRLEIK | 131 | 0.05 | – | –
H4H9629P (antibody, human IgG4, V domains shown, Human IgG4 Fc (H4H)) VH: EVQLVESGGGLVQPGGSLRLSCAASGFTFRSFAMSWVRQAPGKGLELVSDLRTSGGSTYYADSVKGRLTISRDNSKNTLYLQMNSLRAEDTAVYYCAKSHYSTSWFGGFDYWGQGTLVTVSS VL: DIQMTQSPSSVSASVGDRVTITCRASQGFSSWLAWYQQKPGKAPKLLIYAASSLQSGVPSRFSGSGSGTDFTLTITNLQPEDFATYYCQQANSFPLTFGGGTKVEIK | -1 | 0.22 | 8.15e-10 | 5.21e-09
H4H9633P (antibody, human IgG4, V domains shown, Human IgG4 Fc (H4H)) VH: EVQLVESGGGLVQPGGSLRLSCAASGFTFSSYVMSWVRQAPGKGLEWVSSISGNGGSTNYADSVKGRFTISRDNSKNTLFLEMNSLRAEDTAVYYCAKSLGTTTTFLGFDYWGQGTLVTVSS VL: DIQMTQSPSSVSASVGDRVTITCRASQGISSWLAWYQQKPGKAPKLLIYAASSLQSGVPSRFSGSGSGTYFTLTISSLQPEDFATYYCQQANSFPLTFGGGTKVEIK | -1 | 0.21 | – | –
H4H9640P (antibody, human IgG4, V domains shown, Human IgG4 Fc (H4H)) VH: QVQLQESGPGLVKPSETLSLTCTVSGGSISSYYWSWIRQPPGKGLELIGYIYYSGSTNYNPSLKSRVTISVDTSKNHFSLKLSSVTAADTAVYYCARSQYTSSWYGSFDIWGQGTMVTVSS VL: DIQMTQSPSSVSASVGDRVTITCRASQGISTWLAWFQQKPGKAPKLLIYAASTLQGGVPSRFSGSGSGPEFTLTISSLQPEDFATYYCQQANSFPWTFGQGTKVEIK | -1 | 0.18 | 4.42e-09 | 1.22e-08
H4H9660P (antibody, human IgG4, V domains shown, Human IgG4 Fc (H4H)) VH: EVQLVESGGGLVQPGGSLRLSCAASGITLSSYGMSWVRQAPGKGLEWVASIFGSGGGPYYADSVKGRFTMSRDNSKNTLYLQMNSLRAEDTAVYYCAKDRYSGSYYGGFDYWGRGTLVTVSS VL: DIQMTQSPSSVSASVGDRVTITCRASQGITSWLAWYQQKPGKAPTLLIYAASSLQTGVPSRFSGSGSGTDFTLTISSLQPEHFATYYCQQANSFPPTFGGGTKVEIK | -1 | 0.21 | 6.67e-10 | 2.91e-09
H4H9663P (antibody, human IgG4, V domains shown, Human IgG4 Fc (H4H)) VH: QVQLVQSGAEVKKPGASVKVSCKASGYTFTGHYMYWMRQAPGQGLEWMGWINPNSGGTNYAQKFQDRVTMTRDTSISTAYMELSRLRSDDTAVYYCARGRYGSSWYGGFEYWGQGTLVTVSS VL: DIQMTQSPSSVSASVGDRVTITCRASQGITSWLAWYQQKPGKAPNLLIYAAASLQSGVPSRFSGSGSGTDFTLTISSLQPEDFTTYYCQQAYSLPLTFGGGTKVEIK | -1 | 0.17 | 1.24e-08 | 2.2e-08
H4H9664P (antibody, human IgG4, V domains shown, Human IgG4 Fc (H4H)) VH: QVQLVESGGGVVQPGRSLRLSCAASGFTFSSYGLHWVRQSPGKGLEWVALISYDGSNKYYADSVKGRFTISRDNSKNTLYLQMNSLRPEDTAGYFCAKSLYTTSWYGGFDYWGQGTLVTVSS VL: DIQMTQSPSSVSASVGDRVTITCRASQGIRSWLAWYQQKPGKAPNLLIYAASSLQSGVPSRFSGSGSGTDFTLTISSLQPEDFATYYCQQANSFPPTFGPGTKVDIK | -1 | 0.16 | 3.98e-09 | 6.08e-09
H4H9666P (antibody, human IgG4, V domains shown, Human IgG4 Fc (H4H)) VH: QVQLVQSGAEVKKPGASVKVSCKASGYTFTSYGISWVRQAPGQGLEWMGWIRAYNGYTNYAQKFQGRVTMTTDTSTNTAYMELRTLNSDDTAVYYCARDRYSGSFHGNFDYWGQGTLVTVSS VL: DIQMTQSPSSVSASVGDRVTITCRASQGIFSWLAWYQQKPGKAPKVLIYAASNLESGVPSRFSGSGSGTDFTLTISSLQPEDFATYYCQQANSLPLTFGGGTKVEIK | -1 | 0.15 | – | –
H4H9670P (antibody, V domains shown, Human IgG4 Fc (H4H)) VH: EVQLVESGGGLVQPGGSLRLSCAASGFTLSSYAMSWVRQAPGKGLEWVSAISGSGGSTYYADSVKGRFTISRDNSKNSLYLQLNSLRAEDTAVYYCAKTLYTTSWYGGFQHWGQGTLVTVSS VL: DIQMTQSPSSVSASIGDRVTITCRASQGISSWLAWYQQKPGKVPKLLIYAASSLQSGFPSRFSGSGSGTDFTLTISSLQPEDFATYYCQQTHSFPWTVGQGTKVEIK | -1 | 0.19 | – | –
H4H9672P (antibody, human IgG4, V domains shown, Human IgG4 Fc (H4H)) VH: EVQLVESGGGLVQPGGSLRLSCAASGFTLRSYVMYWVRQGPGKGLEGVSGISGSSGGTYYTDSVKGRFTISRDNSKNTLFLQMNSLRAEDTAVYFCARSVYSTTWYGGFQHWGQGTLVTVSS VL: DIQMTQSPSSVSVSVGDRVTITCRASQVISSWLAWYQLKPGKAPKLLIYAASSLQSGVPSRFSGSGSGTDFTLTISGLQPEDFAVYYCQQTNSFPLTFGGGTKVEIK | -1 | 0.16 | – | –
H4H9676P (antibody, human IgG4, V domains shown, Human IgG4 Fc (H4H)) VH: EVQLVESGGGLVQPGGSLRLSCSASGFTFSSYAMNWVRQAPGKGLEWVTAISGSGGGTYYADSVKGRFTISRDNSKNSLFLQLNSLRAEDTAVYYCAKQTYTSSWYGGFDIWGQGTMVTVSS VL: DIQMTQSPSSVSASVGDRVTITCRASQGFSSWLAWYQQIPGKAPKLLIYAASRLQSGVPSRFRGSGSGTDFTLTISSLQPEDFATYYCQQANSFPLTFGGGTKVEIK | -1 | 0.11 | – | –
H1M9559N (antibody, mouse IgG1, V domains shown, Human variable domains, mouse IgG1 Fc (H1M)) VH: QVQLVESGGGVVQPGRSLRLSCAASGFTFSSYGMHWVRQAPGKGLEWVAVIWYDGRNKYYTDSVKGRFTISRDNSKNTLYLQMDSLRAEDTAVYYCARERYISSYYGGFDPWGQGALVTVSS VL: DIQMTQSPSSVSASVGDRVTITCRASQGISSWLAWYQQKPGKAPKVLIYAASSLQSGVPSRFSGSGSGTDFTLTISSLQPEDFATYYCQQANSFPFTFGPGTKLDIK | -4 | 0.06 | – | –
